Measured values taken from US20190338048A1 (published 2019).
Like-named read-outs stand apart in the source and are kept apart here.

Columns and labels:
[1] = biological target: CAT-2200 heavy chain Fab construct (H1), wild type; assay: LCCA, SPR tag read-out
[2] = biological target: CAT-2200 heavy chain Fab construct (H1) L45F (VH L45F); assay: LCCA, SPR tag read-out
[3] = biological target: Pertuzumab heavy chain Fab construct (H2) L45A (VH L45A); assay: LCCA, SPR tag read-out
[4] = biological target: Pertuzumab heavy chain Fab construct (H2) L45P (VH L45P); assay: LCCA, SPR tag read-out
[5] = biological target: Pertuzumab heavy chain Fab construct (H2) Q39D (VH Q39D); assay: LCCA, SPR tag read-out
[6] = biological target: Pertuzumab heavy chain Fab construct (H2) Q39E (VH Q39E); assay: LCCA, SPR tag read-out
[7] = biological target: CAT-2200 heavy chain Fab construct (H1) Q39K (VH Q39K); assay: LCCA, SPR tag read-out
[8] = biological target: Pertuzumab heavy chain Fab construct (H2) Q39D (VH Q39D); assay: LCCA, SPR tag read-out; remark: listed apart in the source
[9] = biological target: Pertuzumab heavy chain Fab construct (H2) Q39E (VH Q39E); assay: LCCA, SPR tag read-out; remark: listed apart in the source
[10] = biological target: CAT-2200 heavy chain Fab construct (H1) Q39K (VH Q39K); assay: LCCA, SPR tag read-out; remark: listed apart in the source
[11] = biological target: Pertuzumab heavy chain Fab construct (H2) Q39D (VH Q39D); assay: LCCA, SPR tag read-out; remark: listed apart in the source
[12] = biological target: Pertuzumab heavy chain Fab construct (H2) Q39E (VH Q39E); assay: LCCA, SPR tag read-out; remark: listed apart in the source
[13] = biological target: CAT-2200 heavy chain Fab construct (H1) Q39E (VH Q39E); assay: LCCA, SPR tag read-out
[14] = biological target: Pertuzumab heavy chain Fab construct (H2) Q39K (VH Q39K); assay: LCCA, SPR tag read-out
[15] = biological target: Pertuzumab heavy chain Fab construct (H2) Q39R (VH Q39R); assay: LCCA, SPR tag read-out
[16] = biological target: CAT-2200 heavy chain Fab construct (H1) Q39E (VH Q39E); assay: LCCA, SPR tag read-out; remark: listed apart in the source
[17] = biological target: CAT-2200 heavy chain Fab construct (H1) Q39D (VH Q39D); assay: LCCA, SPR tag read-out
[18] = biological target: CAT-2200 heavy chain Fab construct (H1) Q39R (VH Q39R); assay: LCCA, SPR tag read-out
[19] = biological target: CAT-2200 heavy chain Fab construct (H1) Q39R (VH Q39R); assay: LCCA, SPR tag read-out; remark: listed apart in the source
Recombinant human IL-17A = Recombinant human IL-17A (human, UniProt Q16552 20-155, limits assumed); assay: SPR
Recombinant human IL-17A, sequence (Q16552 20-155 limits assumed): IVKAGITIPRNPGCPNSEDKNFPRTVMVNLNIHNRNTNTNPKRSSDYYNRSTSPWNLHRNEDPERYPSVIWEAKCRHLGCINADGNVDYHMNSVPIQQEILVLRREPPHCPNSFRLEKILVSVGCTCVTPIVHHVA

[20] = biological target: T1, His-tagged recombinant human CD-19 (human, UniProt P15391 20-291, limits assumed); assay: SPR
T1 sequence (looked up): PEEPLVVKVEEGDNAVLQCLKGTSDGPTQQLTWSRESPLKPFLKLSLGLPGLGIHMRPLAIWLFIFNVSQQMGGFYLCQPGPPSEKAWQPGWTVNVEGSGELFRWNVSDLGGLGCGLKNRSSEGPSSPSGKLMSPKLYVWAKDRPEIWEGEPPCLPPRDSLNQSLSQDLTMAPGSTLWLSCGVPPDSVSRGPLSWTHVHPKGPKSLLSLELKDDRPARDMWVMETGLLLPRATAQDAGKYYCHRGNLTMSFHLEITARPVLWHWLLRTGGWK

[21] = biological target: T1, His-tagged recombinant human CD-19; assay: SPR; remark: listed apart in the source
[22] = biological target: His-tagged Influenza B Hemagglutinin (B/Brisbane/60/2008) (Influenza B (B/Brisbane/60/2008))

B1: Pertuzumab kappa light chain construct (L2) P44F, HA-tagged (other, not shown: small tags and cut ends)
light: DIQMTQSPSSLSASVGDRVTITCKASQDVSIGVAWYQQKPGKAFKLLIYSASYRYTGVPSRFSGSGSGTDFTLTISSLQPEDFATYYCQQYYIYPYTFGQGTKVEIKRTVAAPSVFIFPPSDEQLKSGTASVVCLLNNFYPREAKVQWKVDNALQSGNSQESVTEQDSKDSTYSLSSTLTLSKADYEKHKVYACEVTHQGLSSPVTKSFNRGEC
- H1L1:H1L2 normalized median ratio (H1L2 part) [1]: 38%
- H1L1:H1L2 normalized median ratio (H1L2 part) [2]: 35%
- H2L2:H2L1 normalized median ratio (H2L2 part) [3]: 59%
- H2L2:H2L1 normalized median scalar value ln(r1/f1) [3]: 0.37
- H2L2:H2L1 normalized median ratio (H2L2 part) [4]: 67%
- H2L2:H2L1 normalized median scalar value ln(r1/f1) [4]: 0.72

B2: Pertuzumab kappa light chain construct (L2) Q38K, HA-tagged (other, not shown: small tags and cut ends)
light: DIQMTQSPSSLSASVGDRVTITCKASQDVSIGVAWYQKKPGKAPKLLIYSASYRYTGVPSRFSGSGSGTDFTLTISSLQPEDFATYYCQQYYIYPYTFGQGTKVEIKRTVAAPSVFIFPPSDEQLKSGTASVVCLLNNFYPREAKVQWKVDNALQSGNSQESVTEQDSKDSTYSLSSTLTLSKADYEKHKVYACEVTHQGLSSPVTKSFNRGEC
- H2L2:H2L1 normalized median ratio (H2L2 part) [5]: 75%
- H2L2:H2L1 normalized median scalar value ln(r1/f1) [5]: 1.09
- H2L2:H2L1 normalized median ratio (H2L2 part) [6]: 75%
- H2L2:H2L1 normalized median scalar value ln(r1/f1) [6]: 1.09
- H1L1:H1L2 normalized median ratio (H1L2 part) [7]: 29%
- H2L2:H2L1 normalized median ratio (H2L2 part) [8]: 79%
- H2L2:H2L1 normalized median scalar value ln(r1/f1) [8]: 1.35
- H2L2:H2L1 normalized median ratio (H2L2 part) [9]: 78%
- H2L2:H2L1 normalized median scalar value ln(r1/f1) [9]: 1.29
- H1L1:H1L2 normalized median ratio (H1L2 part) [10]: 35%
- H1L1:H1L2 normalized median ratio (H1L2 part) [1]: 33%
- H2L2:H2L1 normalized median ratio (H2L2 part) [11]: 47%
- H2L2:H2L1 normalized median scalar value ln(r1/f1) [11]: -0.11
- H2L2:H2L1 normalized median ratio (H2L2 part) [12]: 47%
- H2L2:H2L1 normalized median scalar value ln(r1/f1) [12]: -0.11

B3: Pertuzumab kappa light chain construct (L2) Q38E, HA-tagged (other, not shown: small tags and cut ends)
light: DIQMTQSPSSLSASVGDRVTITCKASQDVSIGVAWYQEKPGKAPKLLIYSASYRYTGVPSRFSGSGSGTDFTLTISSLQPEDFATYYCQQYYIYPYTFGQGTKVEIKRTVAAPSVFIFPPSDEQLKSGTASVVCLLNNFYPREAKVQWKVDNALQSGNSQESVTEQDSKDSTYSLSSTLTLSKADYEKHKVYACEVTHQGLSSPVTKSFNRGEC
- H1L1:H1L2 normalized median ratio (H1L2 part) [13]: 24%
- H2L2:H2L1 normalized median ratio (H2L2 part) [14]: 54%
- H2L2:H2L1 normalized median ratio (H2L2 part) [15]: 54%
- H2L2:H2L1 normalized median scalar value ln(r1/f1) [15]: 0.15
- H1L1:H1L2 normalized median ratio (H1L2 part) [16]: 31%
- H1L1:H1L2 normalized median ratio (H1L2 part) [17]: 36%

B4: Pertuzumab kappa light chain construct (L2) Q38D, HA-tagged (other, not shown: small tags and cut ends)
light: DIQMTQSPSSLSASVGDRVTITCKASQDVSIGVAWYQDKPGKAPKLLIYSASYRYTGVPSRFSGSGSGTDFTLTISSLQPEDFATYYCQQYYIYPYTFGQGTKVEIKRTVAAPSVFIFPPSDEQLKSGTASVVCLLNNFYPREAKVQWKVDNALQSGNSQESVTEQDSKDSTYSLSSTLTLSKADYEKHKVYACEVTHQGLSSPVTKSFNRGEC
- H2L2:H2L1 normalized median ratio (H2L2 part) [15]: 56%
- H2L2:H2L1 normalized median scalar value ln(r1/f1) [15]: 0.23
- H1L1:H1L2 normalized median ratio (H1L2 part) [16]: 31%

B5: Pertuzumab kappa light chain construct (L2) Q38R, HA-tagged (other, not shown: small tags and cut ends)
light: DIQMTQSPSSLSASVGDRVTITCKASQDVSIGVAWYQRKPGKAPKLLIYSASYRYTGVPSRFSGSGSGTDFTLTISSLQPEDFATYYCQQYYIYPYTFGQGTKVEIKRTVAAPSVFIFPPSDEQLKSGTASVVCLLNNFYPREAKVQWKVDNALQSGNSQESVTEQDSKDSTYSLSSTLTLSKADYEKHKVYACEVTHQGLSSPVTKSFNRGEC
- H2L2:H2L1 normalized median ratio (H2L2 part) [5]: 77%
- H2L2:H2L1 normalized median scalar value ln(r1/f1) [5]: 1.19
- H1L1:H1L2 normalized median ratio (H1L2 part) [18]: 23%
- H2L2:H2L1 normalized median ratio (H2L2 part) [6]: 73%
- H2L2:H2L1 normalized median scalar value ln(r1/f1) [6]: 1.02
- H2L2:H2L1 normalized median ratio (H2L2 part) [8]: 92%
- H2L2:H2L1 normalized median scalar value ln(r1/f1) [8]: 2.47
- H1L1:H1L2 normalized median ratio (H1L2 part) [19]: 28%
- H2L2:H2L1 normalized median ratio (H2L2 part) [9]: 77%
- H2L2:H2L1 normalized median scalar value ln(r1/f1) [9]: 1.19
- H1L1:H1L2 normalized median ratio (H1L2 part) [1]: 26%
- H2L2:H2L1 normalized median ratio (H2L2 part) [11]: 49%
- H2L2:H2L1 normalized median scalar value ln(r1/f1) [11]: -0.03
- H2L2:H2L1 normalized median ratio (H2L2 part) [12]: 48%
- H2L2:H2L1 normalized median scalar value ln(r1/f1) [12]: -0.08

B6: CAT-2200 Fab heterodimer H1L1, no pairing substitutions (wild-type H1 and L1), light chain with FLAG tag (Fab, V domains shown, not shown: small tags and cut ends)
VH: not shown
VL: NFMLTQPHSVSESPGKTVTISCTRSSGSLANYYVQWYQQRPGSSPTIVIFANNQRPSGVPDRFSGSIDSSSNSASLTISGLKTEDEADYYCQTYDPYSVVFGGGTKLTVLG
- Change in KD of H1L1 Fab vs wild type (Recombinant human IL-17A): 0

B7: Design 3890 bispecific antibody, System C (CR8071 H1/L1 & SGN-CD19a H2/L2) (bispecific antibody)
chain 1: QVQLVQSGAEVKKPGASVRVSCRASGYIFTESGITWVRQAPGQGLEWMGWISGYSGDTKYAQKLQGRVTMTKDTSTTTAYMELRSLRYDDTAVYYCARDVQYSGSYLGAYYFDYWSPGTLVTVSSASTKGPSVFPLRPSSKSTSGGTAALGCLVKDYFPEPVTVSWNSGALTSGVHTFPAVLKSSGLYSLSSVVTVPSSSLGTQTYICNVNHKPSNTKVDKKVEPKSCDKTHTCPPCPAPELLGGPSVFLFPPKPKDTLMISRTPEVTCVVVDVSHEDPEVKFNWYVDGVEVHNAKTKPREEQYNSTYRVVSVLTVLHQDWLNGKEYKCKVSNKALPAPIEKTISKAKGQPREPQVYVYPPSRDELTKNQVSLTCLVKGFYPSDIAVEWESNGQPENNYKTTPPVLDSDGSFALVSKLTVDKSRWQQGNVFSCSVMHEALHNHYTQKSLSLSPG
chain 2: not shown
chain 3: not shown
chain 4: EIVLTQSPATLSLSPGERATLSCSASSSVSYMHWYQQKPGQAPRLLIYDTSKLASGIPARFSGSGSGTDFTLTISSLEPEDFAVYYCFQGSVYPFTFGQGTKLEIKRTVAAPSVFIFPPKDERLKSGTASVVCLLNNFYPREAKVQWKVDNALQSGNSQESVTEQDSKDSTYSLSSRLTLSKADYEKHKVYACEVTHQGLSSPVTKSFNRGEC
- Difference in H2L2 log(KD) from wild type [20]: 0.22 log(KD)
- Kd [21]: 40.9 nM
- Kd [22]: 0.44 nM

B8: Design 2901 bispecific antibody, System C (CR8071 H1/L1 & SGN-CD19a H2/L2) (bispecific antibody)
chain 1: QVQLVQSGAEVKKPGASVRVSCRASGYIFTESGITWVRQAPGQGLEWMGWISGYSGDTKYAQKLQGRVTMTKDTSTTTAYMELRSLRYDDTAVYYCARDVQYSGSYLGAYYFDYWSPGTLVTVSSASTKGPSVFPLAPSSKSTSGGTAALGCLVTDYFPEPVTVSWNSGALTSGVHTFPADLQSSGLYSLDSVVTVPSSSLGTQTYICNVNHKPSNTKVDKKVEPKSCDKTHTCPPCPAPELLGGPSVFLFPPKPKDTLMISRTPEVTCVVVDVSHEDPEVKFNWYVDGVEVHNAKTKPREEQYNSTYRVVSVLTVLHQDWLNGKEYKCKVSNKALPAPIEKTISKAKGQPREPQVYVYPPSRDELTKNQVSLTCLVKGFYPSDIAVEWESNGQPENNYKTTPPVLDSDGSFALVSKLTVDKSRWQQGNVFSCSVMHEALHNHYTQKSLSLSPG
chain 2: not shown
chain 3: not shown
chain 4: EIVLTQSPATLSLSPGERATLSCSASSSVSYMHWYQQKPGQAPRLLIYDTSKLASGIPARFSGSGSGTDFTLTISSLEPEDFAVYYCFQGSVYPFTFGQGTKLEIKRTVAAPSVFIFPPSDEQLKSGTASVGCLLNNFYPREAKVQWKVDNALQSGNSQESVTEQDSKDSTYSLDSTLTLSKADYEKHKVYACEVTHQGLSSPVTKSFNRGEC
- Difference in H2L2 log(KD) from wild type [20]: 0.21 log(KD)
- Kd [21]: 41.9 nM
- Kd [22]: 0.64 nM
